This note sets out measurements from the supplement of paper PMC7877785.

This data set in a line: self-splicing fitness, log relative to wild type (ln ratio); higher = more splicing; Tetrahymena group I intron in knt gene, E. coli kanamycin selection, DiMSum; sequences stand for … in CUCUCU…GGAGGGAAAAGUUAUCAGGCAUGCACCUGGUAGCUAGUCUUUAAACCAAUAGAUUGCAUCGGUUUAAAAGGCAAGACCGUCAAAUUGCGGGAAAGGGGUCAACAGCCGUUCAGUACCAAGUCUCAGGGGAAACUUUGAGAUGGCCUUGCAAAGGGUAUGGUAAUAAGCUGACGGACAUGGUCCUAACCACGCAGCCAAGUCCUAAGUCAACAGAUCUUCUGUUGAUAUGGAUGCAGUUCACAGACUAAAUGUCGGUCGGGGAAGAUGUAUUCUUCUCAUAAGAUAUAGUCGGACCUCUCCUUAAUGGGAGCUAGCGGAUGAAGUGAUGCAACACUGGAGCCGCUGGGAACUAAUUUGUAUGCGAAAGUAUAUUGAUUAGUUUUGGAGUACUCGUGGUCG
The method in brief:
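The eight P1ex-region nucleotides of an intron in the knt kanamycin-resistance gene on pET-22b(+) were all randomised and the library put into E. coli BL21(DE3). Six replicate transformations were grown overnight at 37°C or 30°C on LB agar with or without 25 μg/mL kanamycin, together with 100 μg/mL carbenicillin, 50 μM IPTG and 0.2% rhamnose. Colonies were pooled and amplicon-sequenced on an Illumina HiSeq 2500. Fitness from DiMSum is the error-weighted combination of wild-type-normalised replicate fold changes, kanamycin over none.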

± gives the uncertainty stated by the source.

As to AGUUAGCAAUAUUACGCUUU, the “self-splicing fitness (ln)” value is -2.56 ± 0.13 (30 °C) and -1.09 ± 0.13 (37 °C).

In the case of AGUUAGCAAUAUUACGGAUU, the “self-splicing fitness (ln)” value (30 °C) is -1.32 ± 0.14 and the “self-splicing fitness (ln)” value (37 °C) was -0.035 ± 0.16.

Regarding AGUUAGCAAUAUUACGGCAG, the “self-splicing fitness (ln)” value by setting is: (30 °C) -0.102 ± 0.13; (37 °C) -1.48 ± 0.21.

In the case of AGUUAGCAAUAUUACGGGAG, the “self-splicing fitness (ln)” value (30 °C) is -4.34 ± 0.39 and the “self-splicing fitness (ln)” value (37 °C) is -1.65 ± 0.22.

Take AGUUAGCAAUAUUACGGGCC: the “self-splicing fitness (ln)” value by setting is: (30 °C) -2.24 ± 0.21; (37 °C) -1.61 ± 0.18.

For the sequence AGUUAGCAAUAUUACGGGGG, the “self-splicing fitness (ln)” value is -2.04 ± 0.27 (30 °C) and -1.38 ± 0.31 (37 °C).

Take AGUUAGCAAUAUUACGGGUA: the “self-splicing fitness (ln)” value was -2.61 ± 0.39 (30 °C) and -0.0817 ± 0.2 (37 °C).

Take AGUUAGCAAUAUUACGGGUG: the “self-splicing fitness (ln)” value is -3.86 ± 0.25 (30 °C) and -1.64 ± 0.21 (37 °C).

AGUUAGCAAUAUUACGUAAA: the “self-splicing fitness (ln)” value is, setting by setting: (30 °C) -2.85 ± 0.28; (37 °C) -1.4 ± 0.26.

Take AUAAAGCAAUAUUACGAAGC: the “self-splicing fitness (ln)” value was -4.43 ± 0.46 (30 °C) and -0.791 ± 0.29 (37 °C).

As for AUAAAGCAAUAUUACGACGA, the “self-splicing fitness (ln)” value (30 °C) is -0.00868 ± 0.096 and the “self-splicing fitness (ln)” value (37 °C) was determined as 0.701 ± 0.12.

Consider AUAAAGCAAUAUUACGAGGU, for which the “self-splicing fitness (ln)” value is -3.99 ± 0.16 (30 °C) and -1.9 ± 0.21 (37 °C).

As for AUAAAGCAAUAUUACGAUAA, the “self-splicing fitness (ln)” value (30 °C) is -0.405 ± 0.079 and the “self-splicing fitness (ln)” value (37 °C) is -0.094 ± 0.094.

On to AUAAAGCAAUAUUACGAUAG, for which the “self-splicing fitness (ln)” value runs as follows: (30 °C) -2.82 ± 0.15; (37 °C) -0.468 ± 0.14.

As to AUAAAGCAAUAUUACGAUGC, the “self-splicing fitness (ln)” value reads like this: (30 °C) -1.39 ± 0.08; (37 °C) -0.56 ± 0.12.

For the sequence AUAAAGCAAUAUUACGCACG, the “self-splicing fitness (ln)” value by setting is: (30 °C) -0.375 ± 0.083; (37 °C) -0.0827 ± 0.11.

AUAAAGCAAUAUUACGCGUA: the “self-splicing fitness (ln)” value (30 °C) was -0.873 ± 0.079 and the “self-splicing fitness (ln)” value (37 °C) was -0.0465 ± 0.091.

AUAAAGCAAUAUUACGCGUU: the “self-splicing fitness (ln)” value was -1.56 ± 0.084 (30 °C) and 0.0344 ± 0.1 (37 °C).

With AUAAAGCAAUAUUACGCUGC, the “self-splicing fitness (ln)” value (30 °C) is -3.15 ± 0.23 and the “self-splicing fitness (ln)” value (37 °C) is -2.59 ± 0.33.

In the case of AUAAAGCAAUAUUACGCUGG, the “self-splicing fitness (ln)” value by setting is: (30 °C) -1.43 ± 0.088; (37 °C) -0.293 ± 0.13.

As for AUAAAGCAAUAUUACGGAAU, the “self-splicing fitness (ln)” value (30 °C) is -1.16 ± 0.077 and the “self-splicing fitness (ln)” value (37 °C) was -0.475 ± 0.1.

Turning to AUAAAGCAAUAUUACGGCAA, the “self-splicing fitness (ln)” value was 0.284 ± 0.085 (30 °C) and -0.0372 ± 0.11 (37 °C).

For AUAAAGCAAUAUUACGGCUG, the “self-splicing fitness (ln)” value by setting is: (30 °C) 0.334 ± 0.069; (37 °C) 0.483 ± 0.1.

For the sequence AUAAAGCAAUAUUACGGGGC, the “self-splicing fitness (ln)” value reads like this: (30 °C) -3.6 ± 0.26; (37 °C) -1.97 ± 0.22.

For the sequence AUAAAGCAAUAUUACGGUCC, the “self-splicing fitness (ln)” value is, setting by setting: (30 °C) -0.883 ± 0.14; (37 °C) -0.458 ± 0.17.

On to AUAAAGCAAUAUUACGGUUA, for which the “self-splicing fitness (ln)” value (30 °C) worked out at 0.442 ± 0.078 and the “self-splicing fitness (ln)” value (37 °C) was 0.534 ± 0.09.

On to AUAAAGCAAUAUUACGUACU, for which the “self-splicing fitness (ln)” value amounted to 0.123 ± 0.081 (30 °C) and 0.445 ± 0.095 (37 °C).

In the case of AUAAAGCAAUAUUACGUAGG, the “self-splicing fitness (ln)” value reads like this: (30 °C) -2.93 ± 0.12; (37 °C) -1.51 ± 0.15.

Regarding AUAAAGCAAUAUUACGUCCC, the “self-splicing fitness (ln)” value reads like this: (30 °C) -0.201 ± 0.097; (37 °C) -0.0866 ± 0.13.

Regarding AUAAAGCAAUAUUACGUUCA, the “self-splicing fitness (ln)” value reads like this: (30 °C) 0.0367 ± 0.069; (37 °C) 0.0639 ± 0.1.

In the case of AUACAGCAAUAUUACGAAAU, the “self-splicing fitness (ln)” value runs as follows: (30 °C) -1.44 ± 0.087; (37 °C) -0.906 ± 0.11.

As for AUACAGCAAUAUUACGAGAA, the “self-splicing fitness (ln)” value is -2.21 ± 0.25 (30 °C) and -1.79 ± 0.16 (37 °C).

Turning to AUACAGCAAUAUUACGAUUA, the “self-splicing fitness (ln)” value (30 °C) is -1.18 ± 0.11 and the “self-splicing fitness (ln)” value (37 °C) was -0.625 ± 0.11.

Consider AUACAGCAAUAUUACGCAGA, for which the “self-splicing fitness (ln)” value reads like this: (30 °C) -1.49 ± 0.13; (37 °C) -1.51 ± 0.1.

Regarding AUACAGCAAUAUUACGCCUG, the “self-splicing fitness (ln)” value was -1.94 ± 0.12 (30 °C) and 0.29 ± 0.13 (37 °C).

As for AUACAGCAAUAUUACGCGAU, the “self-splicing fitness (ln)” value (30 °C) is -3.88 ± 0.33 and the “self-splicing fitness (ln)” value (37 °C) was -1.94 ± 0.21.

Take AUACAGCAAUAUUACGCGCA: the “self-splicing fitness (ln)” value is -0.623 ± 0.078 (30 °C) and -0.0747 ± 0.11 (37 °C).
